Test system: human colon cancer cell line LS174T
Conditions: mouse, in vivo

Rtx-TCO: TCO-modified rituximab for control in vivo experiments; lacks specificity for TAG72
tumor-to-blood ratio (T/B): 0.6±0.0 | tumor-to-muscle ratio (T/M): 4.9±0.8
